Data: US20040171117A1 (GlaxoSmithKline, published 2004)

B1: RANKL MAb 19H22 (mouse monoclonal antibody 19H22) (antibody, IgG2b, V domains shown)
VH: EIQLQQSGAELVNPGASVKLSCTASGFNIKGTYMHWVKQRPEQGLEWIGRIDPANGNTKYDPKFQGKATITTDTSPNTAYLQLSSLTSEDTAVYYCTTQFHYYGYGGVYWGQGTLVTVSA
VL: QIVLTQSPAIMSASPGEKVTMTCSASSSVSYMYWYQQKPGSSPRLLIYDTSNLASGVPVRFSGSGSGTSYSLTISRMEAEDAATYYCQQWSNFPLTFGAGTKLELKR
notes: also called 19H22 MAb; murine RANKL MAb 19H22
B2: human RANK-Fc fusion protein (Fc fusion, UniProt Q9Y6Q6 30-212, looked up)
chain: IAPPCTSEKHYEHLGRCCNKCEPGKYMSSKCTTTSDSVCLPCGPDEYLDSWNEEDKCLLHKVCDTGKALVAVVAGNSTTPRRCACTAGYHWSQDCECCRRNTECAPGLGAQHPLQLNKDTVCKPCLAGYFSDAFSSTDKCRPWTNCTFLGKRVEHHGTEKSDAVCSSSLPARKPPNEPHVYLP
notes: Produced in CHO cells; not shown: Fc part
B3: OPG-Fc (Fc fusion, UniProt O00300 22-201, looked up)
chain: ETFPPKYLHYDEETSHQLLCDKCPPGTYLKQHCTAKWKTVCAPCPDHYYTDSWHTSDECLYCSPVCKELQYVKQECNRTHNRVCECKEGRYLEIEFCLKHRSCPPGFGVVQAGTPERNTVCKRCPDGFFSNETSSKAPCRKHTNCSVFGLLLTQKGNATHDNICSGNSESTQKCGIDVTL
notes: Construct not described; also called osteoprotegerin-Fc; not shown: Fc part; not described

What was measured:
[1] = molecular target: T1, soluble human RANKL protein (shRANKL) (human, UniProt O14788 140-317, limits assumed, biotinylated at a 20:1 molar ratio of NHS-biotin to protein (competition ELISA only)); assay: not stated there (paragraph 33 defines high affinity as determined by optical biosensor analysis)
T1 construct: also called sRANKL; soluble RANKL
T1 sequence (looked up): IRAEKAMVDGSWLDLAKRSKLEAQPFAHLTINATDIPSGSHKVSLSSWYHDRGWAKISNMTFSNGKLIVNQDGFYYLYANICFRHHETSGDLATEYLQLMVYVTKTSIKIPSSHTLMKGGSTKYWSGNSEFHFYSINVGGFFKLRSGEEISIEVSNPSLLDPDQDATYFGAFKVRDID

[2] = molecular target: T1, soluble human RANKL protein (shRANKL); assay: cell-based or functional assay
[3] = molecular target: T1, soluble human RANKL protein (shRANKL); assay: competition ELISA: inhibition of biotinylated shRANKL binding to coated RANK-Fc
Description: (§1) A. A competition ELISA was established using a human RANK-Fc fusion protein coated on plastic and a biotinylated soluble human RANKL protein for detection in solution. The RANK-Fc and RANKL proteins were produced in CHO cells and Pichia pastoris, respectively, and purified to >90% homogeneity. The shRANKL (soluble, human RANKL) protein was biotinylated at a 20:1 molar ratio of NHS-biotin to protein (Pierce, Rockford, Ill.) according to th manufacturer's specifications. 96-well ELISA plates were coated overnight at 4° C. with 50 ng/well ([…]) RANK-Fc in pH 9.6 carbonate-bicarbonate buffer. Plates were washed in pH 7.4 Tris-Saline buffer containing 0.1% Tween 20 and blocked for 2 h at RT in 1% BSA/PBS. Competitor proteins (RANK-Fc; death receptor 5 (DR5)-Fc; OPG-Fc; RANKL MAb 19H22) were diluted in 0.01% Tween 20/PBS and added to wells prior to the addition of biotinylated shRANKL (0.43 nM) and the combined samples were incubated for 2 hrs at room temperature. The amount of biotinylated shRANKL bound to coated RANK-Fc (+/−competitor) was measured using alkaline phosphatase conjugated streptavidin. The substrate for signal detection was 105 PNPP (Pierce Inc., Rockford, Ill.) and absorbance measured at 405 nm using a Spectra Max 340 plate reader.

[4] = molecular target: T1, soluble human RANKL protein (shRANKL); assay: competition ELISA: soluble RANK-Fc inhibiting biotinylated shRANKL binding to coated RANK-Fc
Description: as §1

Binder	Kd [1] [nM]	IC50, human monocyte osteoclastogenesis (formation of multinuclear cells) with 50 ng/ml human soluble RANKL plus M-CSF [2] [µg/mL]	IC50 [3] [nM]	IC50 [4] [nM]
B1	~0.1	~4	~2	
B2		~0.5		~6
B3			~0.5	
